Experimental data as given in patent US20110015124A1 (TEMPLE UNIVERSITY OF THE COMMOMWEALTH SYSTEM OF HIGHER …, published 2011).
One block for each molecule: values may come before it. Starred links: 1 amine or outer side, 2 acyl side, 3 side chain; linkers in the order of their positions; H or OH if unused. Non-standard residues stand in square brackets, D forms with d. Primed or numbered codes have the meaning given here. No end group written: not given here. Tyr(Me)″ = methylated tyrosine, COc1ccc(C[C@H](N[*:1])C(=O)[*:2])cc1; Tyr(3,5-I2) = N[C@@H](Cc1cc(I)c(O)c(I)c1)C(=O)O; dGla = N[C@H](CC(C(=O)O)C(=O)O)C(=O)O; Dap = NC[C@H](N)C(=O)O; βAla = NCCC(=O)O

Columns and labels:
[1] = biological target: leptin receptor (ObR) naturally expressed on MCF-7 and DU-45 cells (human) (UniProt P48357); experiment: cell-based or functional assay
[2] = biological target: T1, leptin receptor (ObR) naturally expressed on MCF-7 and DU-45 cells (human, UniProt P48357 22-1165); experiment: cell-based or functional assay
T1 sequence (looked up): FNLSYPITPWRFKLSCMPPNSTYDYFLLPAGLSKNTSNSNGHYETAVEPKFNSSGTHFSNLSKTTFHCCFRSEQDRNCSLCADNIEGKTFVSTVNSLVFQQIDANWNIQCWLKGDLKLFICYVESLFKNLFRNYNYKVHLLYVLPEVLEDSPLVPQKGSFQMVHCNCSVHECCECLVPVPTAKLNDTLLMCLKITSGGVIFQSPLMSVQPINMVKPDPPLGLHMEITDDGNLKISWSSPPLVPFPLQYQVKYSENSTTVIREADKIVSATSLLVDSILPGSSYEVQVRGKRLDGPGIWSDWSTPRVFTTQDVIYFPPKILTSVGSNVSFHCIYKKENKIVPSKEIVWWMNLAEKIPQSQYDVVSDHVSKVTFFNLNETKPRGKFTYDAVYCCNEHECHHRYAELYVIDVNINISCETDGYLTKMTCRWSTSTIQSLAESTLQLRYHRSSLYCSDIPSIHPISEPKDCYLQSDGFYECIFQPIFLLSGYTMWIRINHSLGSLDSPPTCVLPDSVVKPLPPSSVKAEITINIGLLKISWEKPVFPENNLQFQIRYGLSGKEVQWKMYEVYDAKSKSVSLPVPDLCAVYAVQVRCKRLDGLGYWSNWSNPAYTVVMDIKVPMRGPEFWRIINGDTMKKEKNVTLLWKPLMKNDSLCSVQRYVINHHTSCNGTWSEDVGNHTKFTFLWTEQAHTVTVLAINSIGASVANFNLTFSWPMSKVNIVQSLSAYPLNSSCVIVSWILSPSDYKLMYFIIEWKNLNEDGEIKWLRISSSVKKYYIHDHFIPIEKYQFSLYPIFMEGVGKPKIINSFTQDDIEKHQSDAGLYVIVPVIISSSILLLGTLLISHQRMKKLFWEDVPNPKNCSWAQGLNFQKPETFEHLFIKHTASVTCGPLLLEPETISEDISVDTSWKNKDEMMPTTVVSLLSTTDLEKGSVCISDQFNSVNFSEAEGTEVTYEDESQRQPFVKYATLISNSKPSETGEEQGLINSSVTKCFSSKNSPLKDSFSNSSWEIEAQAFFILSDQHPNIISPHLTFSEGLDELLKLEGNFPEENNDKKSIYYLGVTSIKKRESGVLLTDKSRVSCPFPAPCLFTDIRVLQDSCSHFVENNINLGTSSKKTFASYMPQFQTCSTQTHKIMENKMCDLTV

[3] = biological target: T1, leptin receptor (ObR) naturally …; experiment: cell-based or functional assay; remark: listed apart in the source
[4] = biological target: T2, human IgG Fc-conjugated ObR extracellular domain (R&D Systems) (human, UniProt P48357 22-839); experiment: ELISA-type solid-phase binding assay, peptide on plate, ObR-Fc in solution
T2 construct: extracellular domain; it was detected with an antibody specific for the N-terminus of human ObR; also called ObR extracellular fragment-human Fc chimera; extracellular domain of ObR; not shown: human IgG Fc
T2 sequence (looked up): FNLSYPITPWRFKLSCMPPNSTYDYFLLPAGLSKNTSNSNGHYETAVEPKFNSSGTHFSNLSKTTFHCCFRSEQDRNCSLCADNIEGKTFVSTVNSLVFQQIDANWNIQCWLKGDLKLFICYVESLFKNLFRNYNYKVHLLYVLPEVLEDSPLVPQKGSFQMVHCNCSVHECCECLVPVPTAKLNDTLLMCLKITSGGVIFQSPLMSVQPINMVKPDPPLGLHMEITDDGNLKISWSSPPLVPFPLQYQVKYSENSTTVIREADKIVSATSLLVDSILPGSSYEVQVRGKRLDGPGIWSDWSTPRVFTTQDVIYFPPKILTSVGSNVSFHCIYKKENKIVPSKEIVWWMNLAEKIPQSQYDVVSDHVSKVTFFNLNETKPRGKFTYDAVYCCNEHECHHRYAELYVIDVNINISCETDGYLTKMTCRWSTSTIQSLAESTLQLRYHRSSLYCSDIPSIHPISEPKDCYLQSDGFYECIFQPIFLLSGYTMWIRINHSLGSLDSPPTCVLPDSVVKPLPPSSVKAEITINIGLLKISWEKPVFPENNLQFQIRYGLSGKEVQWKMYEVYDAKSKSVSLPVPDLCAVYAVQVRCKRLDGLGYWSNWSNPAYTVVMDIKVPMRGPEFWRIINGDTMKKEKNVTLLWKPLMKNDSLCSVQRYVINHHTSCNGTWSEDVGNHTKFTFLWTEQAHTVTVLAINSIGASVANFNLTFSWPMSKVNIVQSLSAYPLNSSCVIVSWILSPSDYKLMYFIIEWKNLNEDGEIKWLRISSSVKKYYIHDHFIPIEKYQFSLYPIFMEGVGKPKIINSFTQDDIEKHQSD
Description: For dot-blot and ELISA assays, the leptin fragments were dissolved in electroblot transfer buffer (25 mM Tris and […] buffer containing 20% methanol) and were applied to either a nitrocellulose membrane or dried upon ELISA plates (Otvos, L., Jr., and Szendrei, G. I. (1996) Enzyme-linked immunosorbent assay of peptides. In: Neuropeptide Protocols (G. B. Irvine and C. H. Williams, eds.). Humana Press, Totowa, N.J., pp. 269-275). The solid surfaces were blocked with 5% BSA in a PBS-0.5% Tween 20 buffer (PBST) for 3 hours at room temperature and were subsequently incubated with 10 μg/mL solution of human IgG Fc-conjugated ObR extracellular domain (R&D Systems) dissolved in Tris-buffered saline-0.1% Tween 20 buffer (TBST) containing 1% bovine serum albumin (BSA) for 1 hour. A monoclonal goat antibody (Santa Cruz Biotechnology), specific for the N-terminus of human ObR, was added to the assay mixture, followed by addition of a horseradish peroxidase(HRP)-conjugated anti-goat IgG donkey antibody for the dot-blot assay, and HRP-conjugated anti-goat Fc mouse antibody for ELISA assay (used at a 1:15,000 dilution in PBST and 1% BSA). Between reagents, the solid surfaces were washed extensively with PBST. After washing with PBST, the membrane was treated with a chemiluminescence luminol oxidizer (NEN) for 1 min. […] Optical absorbance values were read at 490 nm using a microplate reader. […]

MCF-7 cell growth (cell count, 5 days) [1]: 40%
Molecule: human leptin (R&D Systems) (from UniProt P41159 22-167)

Relative stimulation (%) of MCF-7 cells, with 10 nM leptin [2]: -3%
B1: A11 peptide (peptide)
peptide: [Tyr(Me)″]STEVV[βAla]LSRL-NH2
modifications: N-terminus assumed
SMILES: COc1ccc(C[C@H](N)C(=O)N[C@@H](CO)C(=O)N[C@H](C(=O)N[C@@H](CCC(=O)O)C(=O)N[C@H](C(=O)N[C@H](C(=O)NCCC(=O)N[C@@H](CC(C)C)C(=O)N[C@@H](CO)C(=O)N[C@@H](CCCNC(=N)N)C(=O)N[C@@H](CC(C)C)C(N)=O)C(C)C)C(C)C)[C@@H](C)O)cc1

EC50 estimated from ERK1/2 stimulation in MCF-7 cells [3]: 0.1 to 0.15 µM
B2: E1Free glycopeptide (peptide)
peptide: [Tyr(3,5-I2)]S(β‑D‑glucose)TEVVALSRL[Dap](Ac)-NH2

binding result [4]: no binding
B3: pyrrhocoricin (peptide, UniProt P37362 1-20, looked up)
peptide: VDKGSYLPRPTPPRPIYNRN
notes: Negative control peptide; also called negative control antibacterial peptide pyrrhocoricin

Relative stimulation (%) of MCF-7 cells, with 10 nM leptin [2]: -15%
B4: F2 peptide (peptide)
peptide: G[Tyr(3,5-I2)]ST[dGla]VV[dA]LSRL-NH2
modifications: N-terminus assumed
SMILES: CC(C)C[C@H](NC(=O)[C@H](CCCNC(=N)N)NC(=O)[C@H](CO)NC(=O)[C@H](CC(C)C)NC(=O)[C@@H](C)NC(=O)[C@@H](NC(=O)[C@@H](NC(=O)[C@@H](CC(C(=O)O)C(=O)O)NC(=O)[C@@H](NC(=O)[C@H](CO)NC(=O)[C@H](Cc1cc(I)c(O)c(I)c1)NC(=O)CN)[C@@H](C)O)C(C)C)C(C)C)C(N)=O

Relative stimulation (%) of MCF-7 cells, with 10 nM leptin [2]: -43%
B5: D12 peptide (peptide)
peptide: [Tyr(Me)″]ST[dGla]VV[dA]LSRL-NH2
modifications: N-terminus assumed
SMILES: COc1ccc(C[C@H](N)C(=O)N[C@@H](CO)C(=O)N[C@H](C(=O)N[C@H](CC(C(=O)O)C(=O)O)C(=O)N[C@H](C(=O)N[C@H](C(=O)N[C@H](C)C(=O)N[C@@H](CC(C)C)C(=O)N[C@@H](CO)C(=O)N[C@@H](CCCNC(=N)N)C(=O)N[C@@H](CC(C)C)C(N)=O)C(C)C)C(C)C)[C@@H](C)O)cc1

Relative stimulation (%) of MCF-7 cells, with 10 nM leptin [2]: -10%
B6: A4 peptide (peptide)
peptide: G[Tyr(3,5-I2)]STEVV[βAla]LSRL-NH2
modifications: N-terminus assumed
SMILES: CC(C)C[C@H](NC(=O)[C@H](CCCNC(=N)N)NC(=O)[C@H](CO)NC(=O)[C@H](CC(C)C)NC(=O)CCNC(=O)[C@@H](NC(=O)[C@@H](NC(=O)[C@H](CCC(=O)O)NC(=O)[C@@H](NC(=O)[C@H](CO)NC(=O)[C@H](Cc1cc(I)c(O)c(I)c1)NC(=O)CN)[C@@H](C)O)C(C)C)C(C)C)C(N)=O
